In patent US20210395357A1 (IPHASE PHARMA SERVICE, published 2021):

What was measured:
[1] = molecular target: T1, rhIL-6-His (recombinant human IL-6, Val30 to Met212, C-terminal 6 His) (human, UniProt P05231 30-212); assay: competition ELISA: antibody pre-incubated with rhIL-6-His, binding to coated rhIL-6R detected with anti-His-HRP
Protocol: The rhIL-6R (Sino Biological, 10398-H02H) antigen was diluted with PBS (pH=8.6) to 1.5 μg/ml, added to a microtiter plate A at 100 μl/well, coated overnight at 4° C., and blocked at 37° C. for 2 hour by adding 300 μl/well of 3% BSA after washing the plate for 4 times with PBST. […] The plate A was washed once with PBST, added with the mixture in plate B, and incubated at 37° C. for 1 hour. The plate A was washed for 4 times with PBST, added with 100 μl/well of HRP (horseradish peroxidase) labeled anti-His antibody (ProteinTech, HRP-66005), and incubated at 37° C. for 1 hour. The plate was washed for 4 times with PBST, added with 100 μl/well of TMB color-developing solution (Zuman Bio, ZD311), and incubated at 37° C. for 15 minutes for color development; 50 μl/well of stop solution (1M sulfuric acid) was added, and the absorbance value at 450 nm wavelength was measured on the microplate reader (BioTek, ELx808).

[2] = molecular target: T1, rhIL-6-His (recombinant human IL-6, …); assay: ELISA, rhIL-6-His coated at 1 µg/ml, anti-human IgG-HRP
Protocol: The rhIL-6-His antigen was diluted with PBS (pH=8.6) to 1 μg/ml, added to a microtiter plate at 100 μl/well, coated overnight at 4° C., and blocked at 37° C. for 2 hour by adding 300 μl/well of 3% BSA after washing the plate 4 times with PBST. […] The plate was washed for 4 times with PBST, added with HRP (horseradish peroxidase) labeled goat anti-human IgG antibody (ProteinTech, SA00001-1), and incubated at 37° C. for 1 hour. The plate was washed for 4 times with PBST, added with 100 μl/well of TMB color-developing solution (Zuman Bio, ZD311), and incubated at 37° C. for 15 minutes; after color development, 50 μl/well of stop solution (1M sulfuric acid) was added, and the absorbance value at 450 nm wavelength was measured on the microplate reader (BioTek, ELx808).

[3] = molecular target: T1, rhIL-6-His (recombinant human IL-6, …); assay: cell-based or functional assay
[4] = molecular target: T1, rhIL-6-His (recombinant human IL-6, …); assay: BLI, ForteBio Blitz

T1 sequence (P05231 other isoform, or with tags, fused parts or gaps limits assumed): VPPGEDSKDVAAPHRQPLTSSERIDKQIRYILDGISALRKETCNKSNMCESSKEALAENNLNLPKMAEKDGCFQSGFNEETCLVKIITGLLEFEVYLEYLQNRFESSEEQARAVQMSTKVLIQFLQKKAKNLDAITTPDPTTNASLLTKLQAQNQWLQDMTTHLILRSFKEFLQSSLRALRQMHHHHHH

Binder | IC50 [1] [µg/mL] | EC50 [2] [µg/mL] | concentration of SAA in supernatant of rhIL-6 stimulated HepG2 cells at 100 µg/mL antibody [3] [ng/mL] | concentration that inhibits IL-6-stimulated phosphorylation of p-Stat3 (Tyr705) in DLD-1 cells, Western blot [3] [µg/mL] | kon [4] [M⁻¹ s⁻¹]
HZ-0408d (antibody, human IgG1, kappa, V domains shown, Humanized from murine 140-4; IgG1 type antibody from 293F cells; also called L3/H3) VH: QVTLKESGPVLVKPTETLTLTCTVSGFSLSTSGMGVGWIRQPPGKALEWLAHIWWDDDKRYNSALKSRLTISKDTSKSQVVLTMTNMDPVDTATYYCARIGGLYVDYLMDYWGQGTLVTVSS VL: DIQMTQSPSSLSASVGDRVTITCRASQSISDYLHWYQQKPGKAPKLLIYYASQSISGVPSRFSGSGSGTDFTLTISSLQPEDFATYYCQNGHSFPWTFGQGTKVEIKR | 3.04 | 0.39 | 85 | 32 | 93200
HZ-0408c (antibody, human IgG1, kappa, V domains shown, Humanized from murine 140-4; IgG1 type antibody from 293F cells; also called L2/H3) VH: QVTLKESGPVLVKPTETLTLTCTVSGFSLSTSGMGVGWIRQPPGKALEWLAHIWWDDDKRYNSALKSRLTISKDTSKSQVVLTMTNMDPVDTATYYCARIGGLYVDYLMDYWGQGTLVTVSS VL: EIVLTQSPATLSLSPGERATLSCRASQSISDYLHWYQQKPGQAPRLLIYYASQSISGIPARFSGSGSGTDFTLTISSLEPEDFAVYYCQNGHSFPWTFGQGTKVEIKR | 1.29 | 0.18 | 12.5 | 8 | 74300
HZ-0408a (antibody, human IgG1, kappa, V domains shown, Humanized from murine 140-4; expressed in 293F cells and captured on Protein A as an IgG1 type antibody; also called L1/H2) VH: QVTLKESGPALVKPTQTLTLTCTFSGFSLSTSGMGVGWIRQPPGKALEWLAHIWWDDDKRYNSALKSRLTISKDTSKNQVVLTMTNMDPVDTATYYCARIGGLYVDYLMDYWGQGTLVTVSS VL: EIVLTQSPDFQSVTPKEKVTITCRASQSISDYLHWYQQKPDQSPKLLIKYASQSISGVPSRFSGSGSGTDFTLTINSLEAEDAATYYCQNGHSFPWTFGQGTKVEIKR | 0.72 | 0.16 | 30.5 | 2 | 128000

The remaining lines, values ahead:

IC50 [1] [µg/mL] | EC50 [2] [µg/mL] | concentration of SAA in supernatant of rhIL-6 stimulated HepG2 cells at 100 µg/mL antibody [3] [ng/mL] | concentration that inhibits IL-6-stimulated phosphorylation of p-Stat3 (Tyr705) in DLD-1 cells, Western blot [3] [µg/mL] | kon [4] [M⁻¹ s⁻¹] | Binder
12.5 | 67.3 | 148 | 64 | 28900 | Siltuximab (antibody, V domains shown) VH: EVQLVESGGKLLKPGGSLKLSCAASGFTFSSFAMSWFRQSPEKRLEWVAEISSGGSYTYYPDTVTGRFTISRDNAKNTLYLEMSSLRSEDTAMYYCARGLWGYYALDYWGQGTSVTVSS VL: QIVLIQSPAIMSASPGEKVTMTCSASSSVSYMYWYQQKPGSSPRLLIYDTSNLASGVPVRFSGSGSGTSYSLTISRMEAEDAATYYCQQWSGYPYTFGGGTKLEIK
0.53 | 0.09 | -2.5 | 2 | 233000 | HZ-0408b (antibody, human IgG1, kappa, V domains shown, Humanized from murine 140-4; IgG1 type antibody from 293F cells; also called L1/H3) VH: QVTLKESGPVLVKPTETLTLTCTVSGFSLSTSGMGVGWIRQPPGKALEWLAHIWWDDDKRYNSALKSRLTISKDTSKSQVVLTMTNMDPVDTATYYCARIGGLYVDYLMDYWGQGTLVTVSS VL: EIVLTQSPDFQSVTPKEKVTITCRASQSISDYLHWYQQKPDQSPKLLIKYASQSISGVPSRFSGSGSGTDFTLTINSLEAEDAATYYCQNGHSFPWTFGQGTKVEIKR
